In paper PMC4688034 (Cell Reports, 2015):
One block for each compound: values may come before it.

Columns and labels:
[1] = tested on: γH2AX foci in HeLa cells; assay: γH2AX focus formation after irradiation; format: cell-based; conditions: 10 μM inhibitor, 1 hr prior to 3 Gy IR, fixed 30 min later
[2] = target: 53BP1 BRCT2 domain (UniProt Q12888); assay: fluorescence polarization titration; conditions: reference: pS139 peptide, untreated; sites S139
[3] = target: fluorescein-…pSQEY (γH2AX phosphopeptide) (human); assay: fluorescence polarisation
[4] = target: His6-SUMO-53BP1-BRCT2

Compound: O=c1cc(-c2cccc3c2Sc2ccccc2S3)oc(N2CCOCC2)c1 [KU55933]
γH2AX focus formation on irradiation [1]: substantially diminished

KD [2]: lost; reference 1.4 ± 0.15
Compound: H2AX (γH2AX when phosphorylated on Ser139) C-terminal 13 residues, 130-142 (from UniProt P16104) λ-phosphatase treated peptide

Compound: His6-SUMO-53BP1-BRCT2 (domain or fragment)
Kd [3]: 1400 nM
stoichiometry N [4]: 2
